The text below walks through data of the supplement of paper PMC10126150.

± gives the standard deviation of the averaged measurements.
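Further: ATP exposure 15 min at 22 °C before imaging.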

The subject of the series is ATP. The experiment in a line: switch fluorescence ratio, 500 uM ATP over buffer (Cy3 cluster intensity, sum of 5 cycles each) (fold (ratio)); higher = stronger signal-on switching upon ATP binding; sequences stand for … in TCGTCGGCAGCGTCAGATGTGTATAAGAGACAGTTTTTTTTTTTTTTTTTTTTTTTTT…TC. The conditions noted are these: aptamer strand: ATP DNA aptamer (quencher-CACCTGGGGGAGTATTGCGGAGGAAGG + anchor), 100 nM annealed; ATP concentration: 500 uM. In outline:
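For every switch-domain sequence, the fluorescence ratio is the mean of per-cluster values, each being summed target-cycle Cy3 intensity over summed buffer-cycle Cy3 intensity. Clusters outside 100-1000 RFU were excluded. On a modified Illumina MiSeq flow-cell, the Cy3-labelled switching-strand clusters were annealed to 100 nM quencher-labelled ATP aptamer, imaged in selection buffer and then after 15 min with 500 uM ATP at 22 °C. Five such cycles were run, with NaOH stripping and re-annealing between them.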
As to TGGGGGTGGA, the switch fluorescence ratio worked out at 1.01 ± 0.046.

Take ACTAGGTGCG: the switch fluorescence ratio was determined as 1.06 ± 0.045.

In the case of CGGGGGCTCG, the switch fluorescence ratio is 0.989 ± 0.069.

Take AAGGTGTTCG: the switch fluorescence ratio was determined as 0.957 ± 0.016.

Take CATCGTTTTT: the switch fluorescence ratio was determined as 1.02 ± 0.02.

In the case of TAGTGGGCTG, the switch fluorescence ratio was 0.972 ± 0.025.

As to TTTTGTTACC, the switch fluorescence ratio came out at 1.02 ± 0.018.

In the case of CGCGGTTAAA, the switch fluorescence ratio turned out to be 1.18 ± 0.19.

As to AAGGGCGAGC, the switch fluorescence ratio is 0.985 ± 0.1.

As to GTTAGTAGGA, the switch fluorescence ratio stood at 1.02 ± 0.019.

For TACGGGGGTG, the switch fluorescence ratio was 1.01 ± 0.042.

Consider CTCACTAGCG, for which the switch fluorescence ratio worked out at 1.02 ± 0.031.

Take ACTGCAAAAT: the switch fluorescence ratio stood at 1.127 ± 0.0017.

As to TCAGTCCTAT, the switch fluorescence ratio is 1 ± 0.026.

With GTATCTGGGT, the switch fluorescence ratio was determined as 0.997 ± 0.011.

As to GCATTTGCTG, the switch fluorescence ratio amounted to 0.9719 ± 0.0044.

With GAAATAGTTT, the switch fluorescence ratio was determined as 1.02 ± 0.021.

Consider GCTGCGGGCC, for which the switch fluorescence ratio is 1.02 ± 0.033.

ACTTTGTCGG: the switch fluorescence ratio was 0.995 ± 0.038.

For the sequence TTCAAAATGT, the switch fluorescence ratio amounted to 0.997 ± 0.032.

Regarding TGACTAGTTT, the switch fluorescence ratio was 1.005 ± 0.0059.

Turning to GTGGAAGGTT, the switch fluorescence ratio was 0.995 ± 0.014.

Turning to GAATGGGAGG, the switch fluorescence ratio was 0.975 ± 0.02.

As for GCATTAGGGA, the switch fluorescence ratio was 0.989 ± 0.024.

With GCTAGCCAAG, the switch fluorescence ratio was found to be 1.04 ± 0.053.

Consider TTGGGCGAGC, for which the switch fluorescence ratio turned out to be 0.9736 ± 0.0045.

As for GGGTAGGGTA, the switch fluorescence ratio came out at 0.9864 ± 0.0082.

Turning to AATGATATTG, the switch fluorescence ratio was found to be 0.998 ± 0.032.

On to AACGGGCTGG, for which the switch fluorescence ratio was determined as 0.996 ± 0.04.

Turning to ACATCGTTCT, the switch fluorescence ratio is 0.977 ± 0.018.

For AAAAATTTGG, the switch fluorescence ratio was 1 ± 0.06.

Consider GGTTACGTAG, for which the switch fluorescence ratio turned out to be 1.045 ± 0.0078.

In the case of GCAATGGTAC, the switch fluorescence ratio stood at 2.21 ± 0.098.

For the sequence AAACTGGTAT, the switch fluorescence ratio worked out at 0.982 ± 0.02.

On to TGGGATAAGT, for which the switch fluorescence ratio was 1.01 ± 0.018.

For TAGCCTTAGA, the switch fluorescence ratio was found to be 0.983 ± 0.02.

With CGTTGGGGGC, the switch fluorescence ratio was 0.998 ± 0.087.

As for AGCATTTCTT, the switch fluorescence ratio was 0.98 ± 0.042.

Regarding AGCGCTGGCG, the switch fluorescence ratio was 1 ± 0.049.

On to CATGACGTGT, for which the switch fluorescence ratio amounted to 1.01 ± 0.012.

AGGTTCCTAG: the switch fluorescence ratio turned out to be 0.9775 ± 0.0049.

With GGCGAGTTT, the switch fluorescence ratio turned out to be 1 ± 0.021.

With AAGGGTCACC, the switch fluorescence ratio is 0.999 ± 0.031.

Regarding AAGGGTTTCT, the switch fluorescence ratio amounted to 1.02 ± 0.038.

Turning to CTCTATTTGA, the switch fluorescence ratio turned out to be 0.977 ± 0.016.

Regarding TTTATTATTT, the switch fluorescence ratio is 0.989 ± 0.024.

With CTCTTTGCAG, the switch fluorescence ratio is 1.086 ± 0.0044.

As to GATTACAGCG, the switch fluorescence ratio turned out to be 1.01 ± 0.02.

On to TTTGATACCT, for which the switch fluorescence ratio was 1.266 ± 0.0022.

Take CGAGAGGGGA: the switch fluorescence ratio came out at 1.03 ± 0.02.

Take ATATTTCCTA: the switch fluorescence ratio amounted to 0.989 ± 0.033.

As for CATTTGGTCG, the switch fluorescence ratio was determined as 0.955 ± 0.13.

Regarding AGAAGTGGCG, the switch fluorescence ratio was 1.01 ± 0.03.

TGTTTAAGGT: the switch fluorescence ratio was found to be 0.9871 ± 0.0045.

On to TGCTGGGGTG, for which the switch fluorescence ratio was found to be 1.04 ± 0.1.

CGTAATTGCC: the switch fluorescence ratio was 1.002 ± 0.008.

On to CTGGTTCACC, for which the switch fluorescence ratio was found to be 0.99 ± 0.013.

Turning to TACTCGAGGG, the switch fluorescence ratio is 1.08 ± 0.031.

As to GAAGTTGGAG, the switch fluorescence ratio worked out at 0.97 ± 0.053.

Turning to GTTTGGAGGG, the switch fluorescence ratio worked out at 0.979 ± 0.029.

For the sequence TTTTGAATTA, the switch fluorescence ratio amounted to 1.01 ± 0.032.

With CTGGATGTTA, the switch fluorescence ratio worked out at 0.999 ± 0.024.

For the sequence ATAAAGGAAG, the switch fluorescence ratio is 0.99 ± 0.011.

As for GAAATGGAAG, the switch fluorescence ratio is 1 ± 0.038.

As to GCTCTAGGGA, the switch fluorescence ratio was 0.984 ± 0.043.

As to GCATGGCTGG, the switch fluorescence ratio was found to be 1.017 ± 0.00012.

With AGGGTAGTGC, the switch fluorescence ratio came to 0.9869 ± 0.0091.

Turning to GCTGACGTTA, the switch fluorescence ratio came to 1.1 ± 0.011.

On to AAATTTACAT, for which the switch fluorescence ratio came out at 1.002 ± 0.0034.

Regarding CAGAGTCTGT, the switch fluorescence ratio was 0.999 ± 0.022.

On to CGTAGGAGGG, for which the switch fluorescence ratio stood at 0.997 ± 0.04.

As for GGTAGTGAGT, the switch fluorescence ratio turned out to be 0.9765 ± 0.0078.

In the case of GAGTGGAGAC, the switch fluorescence ratio was 0.977 ± 0.053.

On to TAACCTATCT, for which the switch fluorescence ratio was 1.04 ± 0.033.

For the sequence CAGGTTACGC, the switch fluorescence ratio amounted to 1.01 ± 0.027.

On to GTAGTCGGGT, for which the switch fluorescence ratio was 1.006 ± 0.0044.

As to ATTATGGAGG, the switch fluorescence ratio came to 0.968 ± 0.016.

Take GGTTTTCTGG: the switch fluorescence ratio came to 1.02 ± 0.027.

Turning to CGGGGGGATA, the switch fluorescence ratio amounted to 1.07 ± 0.15.
